According to patent US20220229058A1:
Where no end group is shown, it is not given here.

B1: norovirus-binding peptide of SEQ ID NO: 48 (peptide)
peptide: ICSSWFPSVH
modifications: also: biotinylated, residue not given here, spacer sequence added, letters and position not given here
B2: norovirus-binding peptide of SEQ ID NO: 52 (peptide)
peptide: KYRATICHTV
modifications: also: biotinylated, residue not given here, spacer sequence added, letters and position not given here
B3: norovirus-binding peptide of SEQ ID NO: 150 (peptide)
peptide: VCVDNDISMS
modifications: also: biotinylated, residue not given here, spacer sequence added, letters and position not given here
B4: norovirus-binding peptide of SEQ ID NO: 163 (peptide)
peptide: SVMVTRSLFG
modifications: also: biotinylated, residue not given here, spacer sequence added, letters and position not given here
B5: norovirus-binding peptide of SEQ ID NO: 43 (peptide)
peptide: YVIRNSDRHN
modifications: also: biotinylated, residue not given here, spacer sequence added, letters and position not given here
B6: norovirus-binding peptide of SEQ ID NO: 59 (peptide)
peptide: YRRSKSEIFV
modifications: also: biotinylated, residue not given here, spacer sequence added, letters and position not given here
B7: norovirus-binding peptide of SEQ ID NO: 156 (peptide)
peptide: VVGFGRRSLF
modifications: also: biotinylated, residue not given here, spacer sequence added, letters and position not given here
B8: norovirus-binding peptide of SEQ ID NO: 172 (peptide)
peptide: GCVGDLYCSA
modifications: cysteine pairing not given here; also: biotinylated, residue not given here, spacer sequence added, letters and position not given here
B9: norovirus-binding peptide of SEQ ID NO: 131 (peptide)
peptide: NFRVPIRFTH
modifications: also: biotinylated, residue not given here, spacer sequence added, letters and position not given here
B10: norovirus-binding peptide of SEQ ID NO: 143 (peptide)
peptide: YVVASKSNRL
modifications: also: biotinylated, residue not given here, spacer sequence added, letters and position not given here
B11: norovirus-binding peptide of SEQ ID NO: 154 (peptide)
peptide: ECMGRRWMSS
modifications: also: biotinylated, residue not given here, spacer sequence added, letters and position not given here
B12: norovirus-binding peptide of SEQ ID NO: 155 (peptide)
peptide: VELFLLTSSC
modifications: also: biotinylated, residue not given here, spacer sequence added, letters and position not given here

target: norovirus GII.17 Saitama strain virus-like particle (VLP) (norovirus GII.17 Saitama strain); assay: BLI (BLItz), biotinylated peptide on SA chip, VLP in solution

Question: Which Kd does the source give for B1 here?
Answer: 0.0766 µM

Question: What about the koff of the same binder?
Answer: 0.0978 s⁻¹

Question: And the kon?
Answer: 1.28e+06 M⁻¹ s⁻¹

Question: For B2, which Kd is on record?
Answer: 0.0179 µM

Question: And the koff?
Answer: 0.0232 s⁻¹

Question: What about the kon of the same binder?
Answer: 1.29e+06 M⁻¹ s⁻¹

Question: B3 was tested. Which Kd did it give?
Answer: 2510 µM

Question: What about the koff of the same binder?
Answer: 0.255 s⁻¹

Question: What does the source list for B4?
Answer: Kd: 0.168 µM; koff: 0.0185 s⁻¹; kon: 110000 M⁻¹ s⁻¹

Question: What does the source list for B5?
Answer: Kd: 234 µM; koff: 0.192 s⁻¹; kon: 822 M⁻¹ s⁻¹

Question: B6 was tested. Which Kd did it give?
Answer: 0.383 µM

Question: What about the koff of the same binder?
Answer: 0.0511 s⁻¹

Question: What about the kon of the same binder?
Answer: 134000 M⁻¹ s⁻¹

Question: How did the Kd turn out when B7 was run?
Answer: 234 µM

Question: And the koff?
Answer: 0.0931 s⁻¹

Question: What about the kon of the same binder?
Answer: 398 M⁻¹ s⁻¹

target: norovirus GII.3 TCH strain virus-like particle (VLP) (norovirus GII.3 TCH strain); assay: as above

Question: For B8, which Kd is on record?
Answer: 69.3 µM

Question: And the koff?
Answer: 0.0131 s⁻¹

Question: And the kon?
Answer: 189 M⁻¹ s⁻¹

Question: With B9 as the binder, how does the Kd read?
Answer: 157 µM

Question: What about the koff of the same binder?
Answer: 0.262 s⁻¹

Question: What about the kon of the same binder?
Answer: 1660 M⁻¹ s⁻¹

Question: Which Kd does the source give for B10 here?
Answer: 0.0135 µM

Question: What about the koff of the same binder?
Answer: 0.0044 s⁻¹

Question: And the kon?
Answer: 325000 M⁻¹ s⁻¹

Question: What does the source list for B1?
Answer: Kd: 0.0303 µM; koff: 0.0246 s⁻¹; kon: 810000 M⁻¹ s⁻¹

Question: For B2, which Kd is on record?
Answer: 0.0138 µM

Question: What about the koff of the same binder?
Answer: 0.0103 s⁻¹

Question: And the kon?
Answer: 747000 M⁻¹ s⁻¹

Question: Which results are given for B3?
Answer: Kd: 0.437 µM; koff: 0.0118 s⁻¹; kon: 27000 M⁻¹ s⁻¹

Question: What does the source list for B4?
Answer: Kd: 0.00766 µM; koff: 0.00786 s⁻¹; kon: 1.03e+06 M⁻¹ s⁻¹

Question: For B5, which Kd is on record?
Answer: 0.0672 µM

Question: And the koff?
Answer: 0.0793 s⁻¹

Question: What about the kon of the same binder?
Answer: 1.18e+06 M⁻¹ s⁻¹

Question: How did the Kd turn out when B6 was run?
Answer: 0.00887 µM

Question: What about the koff of the same binder?
Answer: 0.00714 s⁻¹

Question: And the kon?
Answer: 805000 M⁻¹ s⁻¹

Question: For B11, which Kd is on record?
Answer: 0.123 µM

Question: And the koff?
Answer: 0.0173 s⁻¹

Question: And the kon?
Answer: 141000 M⁻¹ s⁻¹

Question: Which results are given for B7?
Answer: Kd: 1.06 µM; koff: 0.0713 s⁻¹; kon: 67300 M⁻¹ s⁻¹

Question: What does the source list for B12?
Answer: Kd: 803 µM; koff: 0.0926 s⁻¹; kon: 115 M⁻¹ s⁻¹
